Results from the Human Domainome abundance scans (Beltran et al. 2025).

B1: Peripheral plasma membrane protein CASK, residues 488 to 569; numbered along this chain, O14936 (parent)
chain: VRLVQFQKNTDEPMGITLKMNELNHCIVARIMHGGMIHRQGTLHVGDEIREINGISVANQTVEQLQKMLREMRGSITFKIVP

Variants of: B1
Test: abundance fitness (aPCA) (normalised: wild type 0, dead -1); higher = more abundant; growth selection in yeast, the domain comes from the species named
Conditions: Homo sapiens

Abundance fitness, by site and new letter:
R50: N -0.054 | T -0.028 | W -0.118 | S -0.079 | Q -0.018 | Y -0.174 | M 0 | P -0.774
I52: L -0.115 | N -0.199 | R -0.649 | V -0.036 | T -0.141
R70: E 0.016 | T -0.02 | C -0.029 | H 0.02 | K -0.02 | I -0.078 | D 0.038 | L 0 | P -0.229 | N -0.024 | S -0.015 | F 0.002 | A 0.012 | G 0.006 | V -0.018 | M -0.019 | Q -0.023
I55: T -0.003 | R 0.007 | V -0.035 | W -0.074 | D -0.035 | N -0.113 | S -0.033 | E 0.026 | L -0.041 | A -0.016 | K -0.001 | Q 0.035 | P -1.05 | Y -0.061 | F -0.065 | G -0.124 | C 0.026 | H -0.04 | M 0.008
N53: R -0.529 | D -0.27 | M -0.357 | I -0.8 | G -0.188 | P -0.719 | K -0.816 | T -0.567 | W -0.972 | C -0.208 | L -0.903 | A -0.308 | S -0.183 | V -0.932 | E -0.327 | Q -0.186 | H -0.7 | Y -0.525
E51: R -0.264 | L -0.442 | C -0.34 | S 0.102 | T -0.301 | V -0.714 | G -0.048 | A -0.096 | F -0.441
M68: A -0.02 | K 0 | F -0.028 | V -0.026 | C -0.026 | T -0.039 | Y -0.045 | P -0.647 | I -0.068 | S -0.004 | G -0.048 | R 0.002 | Q -0.014 | E -0.038 | N -0.012 | L -0.032 | D 0.054 | H -0.019 | W -0.049
Q66: A -0.04 | I -0.094 | N -0.016 | F -0.236 | R -0.104 | W -0.228 | E 0.018 | M -0.012 | G -0.038 | S -0.012 | L -0.094 | P -0.521 | K -0.128 | C -0.055 | Y -0.038 | V -0.141 | H -0.043 | T -0.012
E63: I -0.108 | L -0.092 | F -0.023 | G -0.027 | V -0.098 | T -0.109 | M -0.13 | Y -0.079 | R -0.121 | A -0.048 | Q -0.009 | S -0.035 | N -0.043 | W -0.123 | C -0.08
A58: T -0.017 | F -0.087 | E 0.017 | D -0.037 | H -0.075 | K 0.053 | P -0.327 | M -0.038 | C -0.042 | G -0.01 | S -0.035 | I 0.02 | W -0.104 | N -0.076 | L -0.052 | V -0.025
Q64: W -0.093 | M -0.042 | N -0.025 | P -0.334 | E -0.008 | G -0.064 | D 0.007 | S -0.021 | V -0.061 | F 0.007 | R -0.066 | L -0.08 | K -0.018 | I 0.003 | T -0.025 | C -0.004 | Y 0.005
Q60: S -0.042 | L -0.051 | F 0.013 | N 0.005 | T -0.09 | D -0.154 | A -0.045 | M -0.047 | Y -0.022 | H -0.014 | R -0.007 | V -0.118 | W -0.063 | P -0.984 | C -0.01 | E -0.085
V62: C -0.044 | I -0.025 | E 0.015 | Q -0.068 | G -0.067 | L -0.018 | K -0.114 | A -0.007 | H -0.131 | P -0.032 | F -0.238 | T -0.007 | S 0.003 | M -0.052 | N 0.01 | D -0.031 | Y -0.172 | W -0.154 | R -0.1
L69: V -0.038 | R -1 | N -0.609 | A -0.355 | W -0.308 | Q -0.594 | F -0.101 | G -0.443 | T -0.097 | E -0.537 | D -0.73 | K -0.9 | Y -0.357 | P -0.944 | M -0.029 | I -0.08 | C -0.093 | H -0.777
T61: F -0.457 | S -0.029 | E -0.037 | K -0.054 | L -0.41 | M -0.294 | P -0.048 | A -0.084 | W -0.853 | I -0.642 | H -0.074 | N 0.011 | R -0.095 | Q -0.047 | V -0.329 | G -0.015 | C -0.129
G54: S -0.071 | E -0.076 | C -0.254 | M -0.299 | Q -0.085 | F -0.043 | W -0.549 | R -0.193 | P -0.911 | L -0.636 | T -0.17 | Y -0.056 | V -0.797 | A -0.191 | H -0.076 | N -0.16
V57: M -0.079 | W -0.854 | I 0.007 | A -0.061 | K -0.745 | N -0.809 | T 0.027 | P -0.041 | C -0.046 | Q -0.8 | E -0.965 | H -0.818 | F -0.42 | D -0.915 | R -0.973 | Y -0.578 | G -0.758 | S -0.158 | L -0.126
S56: V -0.064 | G -0.02 | T -0.028 | R -0.052 | W -0.275 | A 0.014 | H -0.09 | L -0.08 | F -0.229 | N -0.032 | K 0.02 | P 0.009 | I -0.155 | E -0.018 | D 0.023 | M -0.102 | Q -0.06
N59: R -0.09 | H -0.006 | Y -0.1 | E -0.001 | T 0.003 | K -0.068 | F -0.016 | V -0.164 | Q -0.09 | A -0.047 | D -0.038 | M -0.099 | W -0.157 | I -0.324 | C -0.114 | S -0.045 | G 0.02
L65: G -0.817 | E -0.889 | D -1.07 | M -0.057 | A -0.166 | T 0.006 | R -0.449 | C -0.048 | V 0.025 | K -0.878 | Q -0.33 | H -0.402 | P -1.02 | S -0.183 | W -0.049 | N -0.318 | F -0.23
K67: A -0.022 | F -0.023 | Q -0.054 | I -0.06 | D 0.02 | N 0.003 | M -0.029 | V 0.002 | C 0.013 | S -0.038 | W -0.119 | E 0.009 | Y -0.064 | T 0.001 | G -0.014 | H 0.029 | P -0.292
